According to publication PMC9104551:

The substances below were run on XylR (ROK family transcriptional regulator) (Paenibacillus polymyxa ATCC842) (assay: EMSA). Conditions: Chemiluminescent EMSA Kit (Beyotime), biotinylated PCR probes; XylR 0.02-0.1 g/L (protein:probe 20.9-104.4) for BST/DTE; buffer, pH, temperature not stated.

Substance | binding signal [% bound]
-1G (A/T to G/C outside site) | 64.5
-2G (A/T to G/C outside site) | 60.8
-2C (A/T to C/G outside site) | 57.6
BST 17T (G71T) | 52.1
BST 1T (A/T to T/A) | 30
-2T (A/T to T/A outside site) | 65.4
BST 17C (G71C) | 63.5
-1C (A/T to C/G outside site) | 50.8
BST 1G (A/T to G/C) | 18.8
-1T (A/T to T/A outside site) | 61.3
BST 1C (A/T to C/G) | 19.8
BST (full predicted site) | 70
BST 17A (G71A) | 1.9
